Experimental data reported in US20250195617A1, “Liquid Pharmaceutical Formulations of CNP Compounds” (Ascendis Pharma Growth Disorders A/S, priority 2022, published 2025).
Bridges are numbered along the chain shown (N, C = ends). Where no end group is shown, it is not given here.

assay: Storage stability of CNP peptide liquid formulations (F33-45), content and purity by RP-HPLC/MS; type: physicochemical; details: acetate buffer, 5° C., 6 months, LC-MS
Experimental: All excipient stock solutions, except for phenol and m-cresol, were prepared by combining the required excipients in a volumetric flask and filling it up to 90% of the desired volume with water. The pH of the stock solutions was adjusted using 1 M NaOH solution as required and the volume adjusted to the desired volume with water. The stock solutions were filtered through a 0.2 μm PVDF-filter. Stock solutions of phenol (1.75%) and m-cresol (1.05%) were prepared by adding the preservative to the respective excipient stock solution after filtration. Next, the required amount of CNP was dissolved in the required amount of the desired excipient stock solution and the pH was checked and adjusted if needed with 1 M NaOH. The formulations were filtered through a 0.22 μm PVDF filter and the respective preservative stock solution was added. The formulations were aliquoted ready for incubation.
RP-HPLC/MS to determine the content and purity of CNP (F33-45): Mobile phase A was composed of 0.05% aqueous TFA (v/v) and mobile phase B was composed of 0.04% TFA (v/v) in acetonitrile. A Waters Acquity CSH C18, 130 Å, 1.7 μm, 2.1×100 mm column was used. Flow rate was set to 0.3 ml/min, detection was at a wavelength of 215 nm, the column running temperature was 65° C. and the sample injection load was approx. 3 μg CNP-38 eq. (20 μL of a 0.135 mg/ml sample). Samples were diluted to 0.135 mg/mL with dilution buffer (10 mM succinic acid, 84 g/l trehalose dihydrate, adjusted to pH 5 with 1M Tris). For LCMS the HPLC system was coupled to an LTQ Orbitrap Discovery XL instrument and ESI-MS was performed in the positive mode. The change in content of the TIM, T3M and T6M was determined by peak area comparison to the TO sample. For determination of the purity, all peaks higher than the LOQ (0.10%) and not present in the blank were integrated.
The influence of the buffering agent, pH, tonicity agent, detergent, and preservative on the stability of CNP-38 was evaluated. For this purpose, nine formulations of CNP-38 were prepared at a concentration of 2 mg/mL and incubated for 6 months (Table 16). One formulation each at pH 4.5 (F33), pH 5.0 (F34) and pH 4.0 (F35) in acetate buffer were prepared. L-methionine was used to prevent the oxidation of the methionine residue in the peptide, trehalose dihydrate was used as a tonicity or isotonicity agent, Poloxamer 188 as a detergent and m-cresol as a preservative. Another formulation at pH 4.5 containing the same excipients was prepared, in which trehalose was switched to mannitol (F37). […] The formulations were incubated at 5° C. To evaluate whether acetate adducts are formed in acetate buffer, the same formulation as in F33 was incubated at accelerated conditions at 25° C. (F33, 25° C.). […]

Formation of acetylated species, No acetylated peptides:
DLRVDTKSRAAWARLLQEHPNARKYKGANKKGLSKGCFGLKLDRIGSMSGLGC (disulfide 37-53; listed as Homo sapiens) [CNP-53], GANKKGLSKGCFGLKLDRIGSMSGLGC (disulfide 11-27) [CNP-27], GLSKGCFGLKLDRIGSMSGLGC [CNP-22], PGQEHPNARKYKGANKKGLSKGCFGLKLDRIGSMSGLGC (disulfide 23-39) [PG-CNP-37]
